What was measured:
[1] = target: human thrombin (Sigma) (human) (UniProt P00734)
[2] = target: plasminogen (Sigma P-7397)

hirudin-IEGR-hirudin fusion protein
specific activity in anti-thrombin units (inhibition of thrombin catalysed hydrolysis of CHROMOZYM TH) [1]: 588 U/mg

recombinant hirudin sample
specific activity in anti-thrombin units (inhibition of thrombin catalysed hydrolysis of CHROMOZYM TH) [1]: 6600 U/mg

thrombin cleavable streptokinase-streptokinase fusion protein
streptokinase activity by the S2251 chromogenic assay [2]: 18400 u/ml
